Laboratory results from PMC12590944.

Target: Archaeoglobus fulgidus ferritin (AfFt), empty cage (Archaeoglobus fulgidus) (UniProt O29424)
Test: UV-vis spectra; AfFt@ samples (AfFt mixed with APEX2-GFP+ at 1:3 under 300 mM NaCl); cargo per cage calculated from the spectra

stoichiometry N (cargo molecules per cage): 1.45
Substance: Engineered Ascorbate Peroxidase 2-GFP+36 fusion protein (APEX2-GFP+) (enzyme)
